In publication PMC8376927 (2021) one finds Kd data, which are given here for one molecule.

The target of the experiment is T1, Human 14-3-3γ WT (human, UniProt P61981 1-247).
T1 chain: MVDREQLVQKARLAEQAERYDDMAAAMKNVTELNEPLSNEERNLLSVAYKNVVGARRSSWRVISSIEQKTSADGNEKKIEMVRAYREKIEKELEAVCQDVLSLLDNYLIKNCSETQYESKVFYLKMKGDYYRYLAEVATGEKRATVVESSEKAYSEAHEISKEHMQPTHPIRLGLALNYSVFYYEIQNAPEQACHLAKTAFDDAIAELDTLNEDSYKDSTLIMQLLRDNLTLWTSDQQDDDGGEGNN
Description: FP.

Non-standard residues stand in square brackets, D forms with d. No end group written: not given here. *: point of attachment. 5FAM = O=C1OC2(c3ccc(O)cc3Oc3cc(O)ccc32)c2ccc(C(=O)*)cc21; pS = N[C@@H](COP(=O)(O)O)C(=O)O

As for 5FAM-RRRWKL[pS]FSIV [FAM-aidDAPK-pS318 peptide (FAM-RRRWKLpSFSIV)], the dissociation constant (Kd) was 48 µM. This lies in the double-digit micromolar range.
